Data reported in article PMC2688778 (Structure (London, England : 1993), 2009).

Target: the molecule itself
Assay: crystal structure

B1: RecE^606 (P658L) (residues 606-866 of E. coli RecE protein with the P658L mutation) (domain or fragment, UniProt P15032 606-866, looked up)
chain: ENYHAGPGISKSQLDDIADTPALYLWRKNAPVDTTKTKTLDLGTAFHCRVLELEEFSNRFIVAPEFNRRTNAGKEEEKAFLMECASTGKTVITAEEGRKIELMYQSVMALPLGQWLVESAGHAESSIYWEDPETGILCRCRPDKIIPEFHWIMDVKTTADIQRFKTAYYDYRYHVQDAFYSDGYEAQFGVQPTFVFLVASTTIECGRYPVEIFMMGEEAKLAGQQEYHRNLRTLSDCLNTDEWPAIKTLSLPRWAKEYAND
  stoichiometry N: 4
